# Data as given in article PMC7961821, “Comparing Ligninolytic Capabilities of Bacterial and Fungal Dye-Decolorizing Peroxidases and Class-II Peroxidase-Catalases” (International Journal of Molecular Sciences, 2021).
# B1: TcuDyP (Thermomonospora curvata DSM 43183) (protein)
# chain: SEERAAGARPSATQTTGTATEPFHGPHQAGIATPPQAHAVFLGLDLRKGTGRKELGRLMRLLTDDARRLTQGRPALADPEPDLAPLPSRLTFTFGFGPGLFKAAGLEKQRPEGLRPLPPFKVDRLEDRWSGGDLLVQICCDDPITLAHALRMTVKDARAFTRVRWVQRGFRRSPGVQSSGATQRNLMGQLDGTVNPVPGTADFDQAVWVQDGPEWLRGGTTLVLRRIRMELEKWDEADPAGKEFAVGRRLTSGAPLTGRHEHDEPDFDAVDSAGFPVIAENAHIRLAHVDSPRLRMLRRPYNYDEGLTADGRSDAGLLFAAYQADIDRQFIPVQRRLDEGGDLLNLWTTPIGSAVFAIPPGCDENGWIGQGLLG
# notes: mature protein without signal peptide, codon-optimised, N-terminal His tag (pET28a), soluble from E. coli BL21(DE3) pLysS, heme enzyme
# B2: PerVPL (Pleurotus eryngii) (protein)
# chain: ATCDDGRTTANAACCILFPILDDIQENLFDGAQCGEEVHESLRLTFHDAIGFSPTLGGGGADGSIIAFDTIETNFPANAGIDEIVSAQKPFVAKHNISAGDFIQFAGAVGVSNCPGGVRIPFFLGRPDAVAASPDHLVPEPFDSVDSILARMGDAGFSPVEVVWLLASHSIAAADKVDPSIPGTPFDSTPGVFDSQFFIETQLKGRLFPGTADNKGEAQSPLQGEIRLQSDHLLARDPQTACEWQSMVNNQPKIQNRFAATMSKMALLGQDKTKLIDCSDVIPTPPALVGAAHLPAGFSLSDVEQACAATPFPALTADPGPVTSVPPVPGS
# notes: heme enzyme
# B3: AauDyP (Auricularia auricula-judae) (protein)
# chain: ATSLNTDDIQGDILVGMHKQKQLFYFFAINDPATFKTHLASDIAPVVASVTQLSNVATQPLVALNIAFSNTGLLALGVTDNLGDSLFANGQAKDATSFKESTSSWVPQFAGTGIHGVIILASDTTDLIDQQVASIESTFGSSISKLYSLSASIRPGNEAGHEMFGFLDGIAQPAINGFNTPLPGQNIVDAGVIITGATNDPITRPSWAVGGSFLAFRQLEQLVPEFNKYLLDNAPAGSGSLQARADLLGARMVGRWKSGAPIDLTPTADDPALGADAQRNNNFTYSHAGFDLGSDQSHCPFSAHIRKTRPRADLGGSLTPPNLSAGANSIMRSGIPYGPEVTSAESASNTTTQERGLAFVAYQAQLSQGFHFLQQTWADNANFPPGKTPATVGLDPIIGQNNGQPRVVNGLLPSNSSASLSIPQFVVSHGGEYFFSPPISAIGGRLSA
# notes: heme enzyme
# B4: PchLiPA (Phanerodontia chrysosporium) (protein)
# chain: ATCSNGKTVGDASCCAWFDVLDDIQQNLFHGGQCGAEAHESIRLVFHDSIAISPAMEAQGKFGGGGADGSIMIFDDIETAFHPNIGLDEIVKLQKPFVQKHGVTPGDFIAFAGRVALSNCPGAPQMNFFTGRAPATQPAPDGLVPEPFHTVDQIINRVNDAGEFDELELVWMLSAHSVAAVNDVDPTVQGLPFDSTPGIFDSQFFVETQLRGTAFPGSGGNQGEVESPLPGEIRIQSDHTIARDSRTACEWQSFVNNQSKLVDDFQFIFLALTQLGQDPNAMTDCSDVIPQSKPIPGNLPFSFFPAGKTIKDVEQACAETPFPTLTTLPGPETSVQRIPPPPGA
# notes: heme enzyme
# B5: AspDyP2 (Amycolatopsis sp. ATCC 39116) (protein)
# chain: MPVDLSTTLSWKSATGEAATMLDELQPNILKAHVRDRLTVLFLGFGDAAEARTFLNGLSGLMKSARTHLQEVEAHKLTKAVGTPYLGVGLTAHGYATLGVTAPADPSFTAGAKAAVEKLADPAVTEWEGHYQQTIDAVLLLGDATAGPVRTLRRQVEALRPASVTVVGEESGLGLANANGDGIEHFGYVDGRSQPLFLTEDVDAERDTTDGVNDWDPSAPLEQVLVPDPAAPDPTVHFGSYFVFRKLEQNVRLFKEAERDLAHDLGLRGEDRERAGAMLVGRFEDGTPLTAQSAPGSHHPVGNDFSYDSDKLGQKCPFHAHIRKTNPRGSGGAEAPEEERKHLMARRGQTYGRRHDDPNADLPPRLRPAKDVGLLFMAFNSNLGNQFEFTQQIWANNPAFPFPPDGSQPGLDPVIGQGARAPQKYAPEWGHNNVAEATDPIPQAVTMKGGEYFFMPSLAFLRSL
# notes: mature protein, codon-optimised, N-terminal His tag (pET28a), soluble from E. coli BL21(DE3) pLysS, heme enzyme
# Experiments:
# Assay in all cases: purified protein
# purified protein [1] = substrate: COc1cc(C(O)C(CO)Oc2ccccc2OC)ccc1O; details: 1 mM H2O2, 100 mM tartrate, pH 3, 25 °C, pH 3.0
# purified protein [2] = substrate: COc1cccc(OC)c1O
# purified protein [3] = substrate: Nc1c(S(=O)(=O)O)cc(Nc2cccc(S(=O)(=O)CCOS(=O)(=O)O)c2)c2c1C(=O)c1ccccc1C2=O; details: 1 mM H2O2, optimal pH (not given for RB19), 25 °C
# purified protein [4] = substrate: CCn1c(=NN=c2sc3cc(S(=O)(=O)O)ccc3n2CC)sc2cc(S(=O)(=O)O)ccc21; type: biochemical, Thermomonospora curvata; details: 1 mM H2O2, pH 3, 25 °C
# purified protein [5] = substrate: COc1ccc(C(O)C(CO)Oc2ccccc2OC)cc1OC; type: biochemical, Pleurotus eryngii; details: 1 mM H2O2, 100 mM tartrate, pH 3, 25 °C
# purified protein [6] = substrate: COc1ccc(C(O)C(CO)Oc2ccccc2OC)cc1OC; type: biochemical, Auricularia auricula-judae; details: 1 mM H2O2, 100 mM tartrate, pH 3, 25 °C
# purified protein [7] = substrate: COc1ccc(C(O)C(CO)Oc2ccccc2OC)cc1OC; type: biochemical, Phanerodontia chrysosporium; details: 1 mM H2O2, 100 mM tartrate, pH 3, 25 °C
# purified protein [8] = substrate: CCn1c(=NN=c2sc3cc(S(=O)(=O)O)ccc3n2CC)sc2cc(S(=O)(=O)O)ccc21; type: biochemical, Amycolatopsis sp. ATCC 39116; details: 1 mM H2O2, pH 5, 25 °C
protein,measurement,setting,value
B1,Km,purified protein [1],80 ± 16 µM
same,kcat,purified protein [1],1.1 ± 0.1 s⁻¹
same,kcat/Km,purified protein [1],14200 ± 1800 M⁻¹ s⁻¹
same,Km,"purified protein [2]; 1 mM H2O2, pH 3, 25 °C, pH 3.0",2 ± 0.3 µM
same,kcat,"purified protein [2]; 1 mM H2O2, pH 3, 25 °C, pH 3.0",2.7 ± 0.4 s⁻¹
same,kcat/Km,"purified protein [2]; 1 mM H2O2, pH 3, 25 °C, pH 3.0",1.3e+06 ± 100000 M⁻¹ s⁻¹
same,Km,purified protein [3],7 ± 2 µM
same,kcat,purified protein [3],1.3 ± 0.1 s⁻¹
same,kcat/Km,purified protein [3],200000 ± 40000 M⁻¹ s⁻¹
same,Km,purified protein [4],309 ± 95 µM
same,kcat,purified protein [4],53.0 ± 6.1 s⁻¹
same,kcat/Km,purified protein [4],170000 ± 30000 M⁻¹ s⁻¹
B2,Km,purified protein [1],206 ± 17 µM
same,kcat,purified protein [1],2.7 ± 0.1 s⁻¹
same,kcat/Km,purified protein [1],13200 ± 700 M⁻¹ s⁻¹
same,Km,purified protein [5],659 ± 80 µM
same,kcat,purified protein [5],1.2 ± 0.1 s⁻¹
same,kcat/Km,purified protein [5],1800 ± 100 M⁻¹ s⁻¹
B3,Km,purified protein [6],448 ± 59 µM
same,kcat,purified protein [6],0.3 ± 0.01 s⁻¹
same,kcat/Km,purified protein [6],700 ± 100 M⁻¹ s⁻¹
B4,Km,purified protein [1],208 ± 41 µM
same,kcat,purified protein [1],1.3 ± 0.1 s⁻¹
same,kcat/Km,purified protein [1],6500 ± 700 M⁻¹ s⁻¹
same,Km,purified protein [7],88 ± 3 µM
same,kcat,purified protein [7],1.3 ± 0.2 s⁻¹
same,kcat/Km,purified protein [7],14700 ± 400 M⁻¹ s⁻¹
B5,Km,purified protein [1],179 ± 39 µM
same,kcat,purified protein [1],12.0 ± 1.2 s⁻¹
same,kcat/Km,purified protein [1],67000 ± 8500 M⁻¹ s⁻¹
same,Km,"purified protein [2]; 1 mM H2O2, pH 4, 25 °C, pH 4.0",177 ± 34 µM
same,kcat,"purified protein [2]; 1 mM H2O2, pH 4, 25 °C, pH 4.0",94.0 ± 4.6 s⁻¹
same,kcat/Km,"purified protein [2]; 1 mM H2O2, pH 4, 25 °C, pH 4.0",530000 ± 80000 M⁻¹ s⁻¹
same,Km,purified protein [3],20 ± 4 µM
same,kcat,purified protein [3],26.0 ± 2.0 s⁻¹
same,kcat/Km,purified protein [3],1.3e+06 ± 200000 M⁻¹ s⁻¹
same,Km,purified protein [8],165 ± 18 µM
same,kcat,purified protein [8],30.0 ± 0.9 s⁻¹
same,kcat/Km,purified protein [8],180000 ± 20000 M⁻¹ s⁻¹
